Source: the DeepSol protein solubility set

Test: soluble on expression in E. coli; label from the status in PepcDB or PDB records

| Sequence | soluble on expression in E. coli |
| --- | --- |
| MKPVFLDFEQPIAELTNKIDELRFVQDESAVDISDEIHRLQKKSNDLTKSIFSKLTPAQISQVSRHPQRPYTLDYIEALFTDFEELHGDRHFADDYAIVGGLARFNGQSVMVVGHQKGRDTKEKIRRNFGMPRPEGYRKALRLMKTAEKFGLPVMTFIDTPGAYPGIGAEERGQSEAIGKNLYELTRLRVPVLCTVIGEGGSGGALAVALGDYVNMLQYSTYSVISPEGCASILWKTAEKAADAAQALGITADRLQKLDLVDTVIKEPLGGAHRDFGQTMKNVKAVLEKQLHEAQSIPLADLLSRRFDRIMAYGKFSEQ | not soluble |
| MQRVTITLDDDLLETLDSLSQRRGYNNRSEAIRDILRGALAQEATQEHGTQGFAVLSYVYEHEKRDLASRIVSTQHHHHDLSVATLHVHINHDDCLEIAVLKGDMGDVQHFADDVIAQRGVRHGHLQCLPKED | not soluble |
| PFSWRHYIVLSRQDLEEYGEEIIAHEYAHIMHKHFRDLLLAEICLLFQWFNPAMWLFRKELKTVHEFEADESVLKAGIDAKKYQLLLI | not soluble |
| AHHHHHHGSKVLVTGFEPFGGEKINPTERIAKDLDGIKIGDAQVFGRVLPVVFGKAKEVLEKTLEEIKPDIAIHVGLAPGRSAISIERIAVNAIDARIPDNEGKKIEDEPIVPGAPTAYFSTLPIKKIMKKLHERGIPAYISNSAGLYLCNYVMYLSLHHSATKGYPKMSGFIHVPYIPEQIIDKIGKGQVPPSMCYEMELEAVKVAIEVALEELL | soluble |
| MAHHHHHHMLNRSRLRRVWLGGTAANTSLGRDVMPSTGKYINIVSPTDVAANISAGAMPPEANVAAALPVPRIQYSKWNRALRSDVYDELLKLPLRYKLHDFAKLCPPQRCQEEPEAVGVVGRDSAVGYLPPLGPADPLDTIPFFVHRSSNGVLPGKVFSMHPRNLMPAFYLRIQQVEGDMFRFEEELLKIFPTKKIFVRSHSIYVYNVALDGRMVLHHWLLGLGF | not soluble |
| MIQTKDIIELTDTYGANNYHPLPIVISKAEGVWVEDPEGNRYMDLLSAYSAVNQGHRHPKIINALIDQANRVTLTSRAFHSDQLGPWYEKVAKLTNKEMVLPMNTGAEAVETAIKTARRWAYDVKKVEANRAEIIVCEDNFHGRTMGAVSMSSNEEYKRGFGPMLPGIIVIPYGDLEALKAAITPNTAAFILEPIQGEAGINIPPAGFLKEALEVCKKENVLFVADEIQTGLGRTGKVFACDWDNVTPDMYILGKALGGGVFPISCAAANRDILGVFEPGSHGSTFGGNPLACAVSIAALEVLEEEKLTERSLQLGEKLVGQLKEIDNPMITEVRGKGLFIGIELNEPARPYCEQLKAAGLLCKETHENVIRIAPPLVISEEDLEWAFQKIKAVLS | not soluble |
| MKSFCDNDDNNHSNTTNLLGFSLSSNMMKMGGRGGREAIYSSSTSSAATSSSSVPPQLVVGDNTSNFGVCYGSNPNGGIYSHMSVMPLRSDGSLCLMEALNRSSHSNHHQDSSPKVEDFFGTHHNNTSHKEAMDLSLDSLFYNTTHEPNTTTNFQEFFSFPQTRNHEEETRNYGNDPSLTHGGSFNVGVYGEFQQSLSLSMSPGSQSSCITGSHHHQQNQNQNHQSQNHQQISEALVETSVGFETTTMAAAKKKRGQEDVVVVGQKQIVHRKSIDTFGQRTSQYRGVTRHRWTGRYEAHLWDNSFKKEGHSRKGRQVYLGGYDMEEKAARAYDLAALKYWGPSTHTNFSAENYQKEIEDMKNMTRQEYVAHLRRKSSGFSRGASIYRGVTRHHQHGRWQARIGRVAGNKDLYLGTFGTQEEAAEAYDVAAIKFRGTNAVTNFDITRYDVDRIMSSNTLLSGELARRNNNSIVVRNTEDQTALNAVVEGGSNKEVSTPERLLSFPAIFALPQVNQKMFGSNMGGNMSPWTSNPNAELKTVALTLPQMPVFAAWADS | soluble |
| MVLKSKGSVLDLEHDNQTLKDYISVFERNKMRLTQSRLMLLQCLVQHRDWHTLAELKHHLEQNQQRTTLASIYNNLKIFAKLKLINIFVDTNRFETYYCLRHENHKHIYFFDENQRKFLTLPLQDKEALSLIGHKSKHGKIKLNDFYIVASGTLEDDQ | soluble |
| MINLELGKDFLDRFTKVCEFLRVEPSLDVVVFECESLEEFHEITGMPYHTGGVYHEGVIYTQPLDVLRRKNSLEATILHELLHHVLEMYFDLPRWMEEGVVLAVLGVKPEEVFGYHRDCLLRFMEKVRYEEIPDLVDRYRRSSVERRLEHHHHHH | soluble |
| MGSDKIHHHHHHMKKLIAIDLDGTLLNEKSTISEENTESLQRAQEAGMEVVIATGRAYFDVIDLLKPTGMHPWVIGANGATIHDPTGRRLLSIPLEHKQAIEILHWLEGKHFYYEVFSDEAIFTPQNGRELLAIEMDRLVSANPQTDLGTLSQAAAKQFSQTGFSYVSSYRDLLDTEVNIYNILAFSFDDQKLAKGWDRFKQTDNVTLVTSAEHNFELEHPLASKGNALTWLAKHLHIPLEHTVAIGDSMNDYSMITIAGYSIAMGNARAEIKQISHEVTLSNYEHGVSHSIERLLAAKRLGQN | not soluble |
| MSLSDHKIDRIRVHRVLIPGKAVHSHGIGDVAGIHAVILEVITDTGLTGWGEASPWPAFTGTAEGTVAALYTYLRPHLIGQDPVQVERHMRDAEALVVGHPEAKAALEMALLDLTGQISGLSVCELVGGRMRDDMGLSFSVANPDFGKDLEDVAAMWAEGVRIFKIKTGFKSHGFDLMRLEKLRGIYGAEADLRIDYNQGLPAYDAVRCIRDLEAFRPTFVEQPVKMHERDALAHIAHVIETPIMADESVFGVREALHGVQIRMADIFSLKVMKSGGIRRALEVSAIARAAGIEVYGGCMFETGLAHAAGAHLMAALPELRLDCEFYMSTYYASEDILTEPFPVRGGRVHVPEGPGLGVAVDPAMLAKYAQAEALGEGHHHHHH | soluble |
| MTVDHRQWAREAIRIIEADFQRSADTHLIPLETPGLPGVELYFKDESSHPTGSLKHRLARSLFLYALCNGWLRPAAPVIEASSGSTAISEAYFARLLGLPFIAVMPASTSKEKIAQIAFYGGQSHLVEDPTQIYAESERLARESGGHFMDQFTYAERATDWRANNNIAESIFQQMRHEPYPTPTWLISSPGTGGTLATLGRYVRYRQHCTRVLCADAERSVFFDAYVSGDRGLTLDCGSRIEGIGRPRVEASFLPEVIDAMVKVPDAWSLAAMHYLARRLGRRVGGSSGTNLIGALVAARQMVAAGEKGSLVAILCDGGERYATTYYDPVWLARQGYALEPLVEALAACIERGVALPDGLLVAG | not soluble |
| MNREEMTLLGFEIVAYAGDARSKLLEALKAAENGDFAKADSLVVEAGSCIAEAHSSQTGMLAREASGEELPYSVTMMHGQLHLMTTILLKDVIHHLIELYKRGAK | soluble |
| MLTKGWDTISIVRQDSVNSDLAASWNSLDHEFSYTSDEGYACHGVFDCWSVINGGGGRLLRLRMPIRSGFFEASGTSRSLAGAVAIIEVTLSLLPQGNGQVQLKSAFLHKAGATQPLQGDEGGWLRGITLQDPDGSLGPFASVVLDCICNYLVEHPLQFTHTFATINFSKATAPEWARPRKCTYAYLDSGFLAIMAVCTERDISGLPLDIDVSGISQGGQSSYVLSPRMVLEHLVLPGLLQLYQGATAQDYRLDNTQMVNIPTLRMKAIKSGAIWYTPVVFAGCNPARMLGDFITVDYKGDCDLHAGIDMKWNGWLRMKLVLDGNTINFVKQSSDFRKEVHIPWYLAWLSPIVSLITHIVAAVISDDLISAIAARGGSVKADTIDCVSWSNDTHTASSSYLAEALVINYV | soluble |
| MSLKITIRDIAKQAEVSISTVSFVINGKGEKMAISPAVIKKVQDVAQKLQYKPSMIASSLRTGKTRSIGLIVEDISNQFFADLARVIEDEAKNINYRVFYCSTGDDNDRSEELVQSLLQANVEGFIITPTRNLEKTISQLLKLQKPVVLIDRYFANQKVSHVVMDNYEGSYSAVKFLISKGRKNIAVVNNKSGMIQMKLREKGYVEALKEEGIYNEKYTLLLDYHSSEKTRIEEIINFFNQNKEIDAVLFCANYMGLAGLQAFRTLNYKIPNDISVISFDDHDSFKLHTPTISVIAQPIEDIAVESIQLLMSQMTNFEDFKIEKVLKKGTLIIRESVEGHHHHHH | soluble |
| MSLEQFNVWFTVSEVQGLVKSGGLADVAKALPQALKALHQQVAIALPAYRSVPGKEDAELVLETELTHWPHTQYRVLKRDLDGVPIYLIDCPAYFDRPALYAENNQAYADNGERFGFFSAACLDVLPKLGIQPDIIHANDWHTGLVPFLLKTRYRYDSFFEQVKSVLTVHNAIFKGIFSYHQLEVIPELNLSGMEFLQYGHDHVSMLRAGIAFADKVNAVSPNYAAELLTPLGAHGLVDDFVRRARDLHGIVNGCDYSEWNPRTDHYLPATYSDEPESMRKGKALCKTALQEELHLPVTDVPLFGMVCRLTHQKGFHYLLPILEQFLRNNVQVVIVGTGEPEVAARLNKIAHYHRAKFAFVETYSERLAHWVEAGSDFFLMPSEFEACGLNQIYSMAYGTLPIVREVGGLKDTVNDYDKFPERATGFGYQEPTPEALLITMQRALLFYLQQPEEMLKVQQRAMQQNFSWEESAQEYMKMYRLARFEGHHHHHH | soluble |
| MGSDKIHHHHHHMNIVTLISWDFKRNNESFQRAIINGYDYWSRILDDHGVEKYVILLTCNRVELYYRGDPFDVQEKGYNIISDDMAINHLFHVAAGLDSMSIGENEVLKQVKQAYEKSSSMGKSDKFLSLIFQRAISVGKLVRSKTGIGKGKVSIPSIVYDIVRKNGGNKILLVGNGMLASEIAPYFSYPQYKVTVAGRNIDHVRAFAEKYEYEYVLINDIDSLIKNNDVIITATSSKTPIVEERSLMPGKLFIDLGNPPNIERGNNVITLDEIYEISKKNEMLREEKINQAEILIENEMKATMNKIKDLMIDDIFSQFYRFASVVQTMEIQKFRKMHPEVNENDLEALAHSIINKILNVPVTTLKAVSRSQGNSDFNRLFESFSSNFNDIVSAALQSYEGLRDTQSLRDRTRQLLQKS | not soluble |
| MAEWCADHLRNCEGWKSAGLELSTTSDENAKWLDACIRQLVSWSDCTSLGGFHTSIEKLVASDPEAIMARTFLVGLSGLGTEAAARNVEFAKKMDQLEIDAEKYGNAREKRHAKAAILWGRGKHHEAAIEWDKLLDDYPTDLIAVKFSHDAHFFNGNQIGKKNAIEKVIHKWNADLPCYSYLHGMYAFGLEECGIYDDAETQADRALQLNRFDCWASHAKAHVLEMNGRHKEGKEFMYKTEDDWRQGWMLASHNYWHTALFHIEYAEYESALGIFDREIANRFNKTNSLLDMVDASSLLWRLELEGVNVGRDRWRKIEHLSKFIDNHSIVFNDVHLGLAIYRQEDLETEKKLRNSLEKYSSLLSEDNAQISKTIGMPLYDGMLDFARCDYDTAAETMYPIRDKVVQIGGSHAQRDLFVQTLIQSCILSKDPKNWALTPELLVERETLKHDSLLGQRLADKFRALHPL | not soluble |
| MWTEQHVKEIDSIIRKKEDEQLSLPIMEQKLQINNRRYLGSKYKLLEFICKVVRENCTSVSSVADIFGGTGVVADRFNKEGKDIIVNDILYSNYLAYLTWFSNEKVNITKIEKLIKFFNESEPTEDNYVSINFGGTYFTEYNARKIGYVREEIEKMSDELNAREKAILITSLIYAMDKVANTVGHYDAYRRKLDSIKEIKLLMPEFNDGLNNGNKIFKEDANELVRKISADLIYIDTPYNSRQYGDAYHLLENIAEWEKPDLVGVAKKMIDRSHIKSDYCTMKATSAFADLISNIKGKYILVSYNNMAQKGVGRSNAKISSEEIVEILETRGTVEIFETNFQAYTTGKTNIDDHKEILYLCEVSR | not soluble |
| MSRIGLQQLNNSARNSPFGSEKATGTKQIPEPLKLTAQLKKYQPITPSPLASATTITPVLSPFDVFCDDDQEAKNVETQMFEYGTVSTQTIINVPHVQPKITEADLTSEKPTVNYLRVMADRLQMDLDDEMDRNQRLVAELGDLDEKMRKIDDDTEILLEVLADIDEEQQTDEEIGTAQL | not soluble |
| YNPLNSVEDSTNRRDTVLQNMVAAGYIDKNQETKAAEVDMTSQLHDKYEGKISDYRYPSYFDAVVNEAVSKYNLTEEEIVNNGY | not soluble |
